According to paper PMC8602626:
Changes are numbered by the printed parent chain.

Molecular target: GluA1::SNAP396 (UniProt P19490)
UniProt P19490, sequence (P19490 19-907): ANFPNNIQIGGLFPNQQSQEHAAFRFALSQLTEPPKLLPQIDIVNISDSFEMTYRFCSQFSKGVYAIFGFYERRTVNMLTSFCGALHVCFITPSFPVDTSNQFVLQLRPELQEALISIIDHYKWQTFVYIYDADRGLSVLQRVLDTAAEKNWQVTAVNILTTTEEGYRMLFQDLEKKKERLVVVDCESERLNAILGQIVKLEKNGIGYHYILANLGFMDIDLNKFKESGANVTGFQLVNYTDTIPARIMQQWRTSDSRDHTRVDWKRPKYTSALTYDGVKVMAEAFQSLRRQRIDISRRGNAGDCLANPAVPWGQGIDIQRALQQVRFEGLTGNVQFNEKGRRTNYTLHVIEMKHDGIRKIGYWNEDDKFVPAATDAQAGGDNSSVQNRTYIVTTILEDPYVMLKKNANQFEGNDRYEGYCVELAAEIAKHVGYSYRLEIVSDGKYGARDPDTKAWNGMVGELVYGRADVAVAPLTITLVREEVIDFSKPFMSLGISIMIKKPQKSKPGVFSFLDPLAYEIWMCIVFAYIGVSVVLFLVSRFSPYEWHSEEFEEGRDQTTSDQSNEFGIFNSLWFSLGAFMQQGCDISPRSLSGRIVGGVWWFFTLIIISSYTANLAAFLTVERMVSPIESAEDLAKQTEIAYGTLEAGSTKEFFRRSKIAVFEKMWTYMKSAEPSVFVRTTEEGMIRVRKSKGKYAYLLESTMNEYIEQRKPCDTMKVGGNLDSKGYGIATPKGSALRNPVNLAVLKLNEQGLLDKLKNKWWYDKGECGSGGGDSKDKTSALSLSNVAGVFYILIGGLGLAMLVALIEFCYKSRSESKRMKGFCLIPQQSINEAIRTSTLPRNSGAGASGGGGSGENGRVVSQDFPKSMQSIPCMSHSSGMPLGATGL

B1: γ2 S44* (natural protein)
chain: MGLFDRGVQMLLTTVGAFAAFSLMTIAVGTDYWLYSRGVCKTKKVSENETSKKNEEVMTHSGLWRTCCLEGNFKGLCKQIDHFPEDADYEADTAEYFLRAVRASSIFPILSVILLFMGGLCIAASEFYKTRHNIILSAGIFFVSAGLSNIIGIIVYISANAGDPSKSDSKKNSYSYGWSFYFGALSFIIAEMVGVLAVHMFIDRHKQLRATARATDYLQASAITRIPSYRYRYQRRSRSSSRSTEPSHSRDASPVGVKGFNTLPSTEISMYTLSRDPLKAATTPTATYNSDRDNSFLQVHNCIQKDSKDSLHANTANRRTTPV
modifications: TCO*A (trans-cyclooct-2-ene-L-lysine) at 44, clicked with H-Tet-Cy3
B1 gave a recovery from desensitization τrec, whole-cell patch clamp, HEK293T cells with untagged GluA1 (flip isoform) and γ2 S44*::eGFP (GluA1 alone 162.6) of 62.3 ms.

B2: γ2::eGFP (natural protein)
chain: B1 chain with K44S
For B2, the recovery from desensitization τrec, whole-cell patch clamp, HEK293T cells with untagged GluA1 (flip isoform) and γ2::eGFP (GluA1 alone 162.6) was 57.1 ms.

B3: γ8::eGFP (natural protein)
chain: MESLKRWNEERGLWCEKGVQVLLTTIGAFAAFGLMTIAISTDYWLYTRALICNTTNLTAGDDGPPHRGGSGSSEKKDPGGLTHSGLWRICCLEGLKRGVCVKINHFPEDTDYDHDSAEYLLRVVRASSIFPILSAILLLLGGVCVAASRVYKSKRNIILGAGILFVAAGLSNIIGVIVYISANAGEPGPKRDEEKKNHYSYGWSFYFGGLSFILAEVIGVLAVNIYIERSREAHCQSRSDLLKAGGGAGGSGGSGPSAILRLPSYRFRYRRRSRSSSRGSSEASPSRDASPGGPGGPGFASTDISMYTLSRDPSKGSVAAGLASAGGGGGGAGVGAYGGAAGAAGGGGTGSERDRGSSAGFLTLHNAFPKEAASGVTVTVTGPPAAPAPAPPAPAAPAPGTLSKEAAASNTNTLNRKTTPV
B3 was tested, and the recovery from desensitization τrec, whole-cell patch clamp, HEK293T cells with untagged GluA1 (flip isoform) and γ8::eGFP (GluA1 alone 162.6) was 40.9 ms.

B4: γ8 S72* (natural protein)
chain: B3 chain with S72K
modifications: TCO*A (trans-cyclooct-2-ene-L-lysine) at 72, clicked with H-Tet-Cy3
With B4 the recovery from desensitization τrec, whole-cell patch clamp, HEK293T cells with untagged GluA1 (flip isoform) and γ8 S72*::eGFP (GluA1 alone 162.6) was 45.8 ms.
